Publication PMC5385555, “Molecular basis for the behavioral effects of the odorant degrading enzyme Esterase 6 in Drosophila” (Scientific Reports, 2017)

Key:
[1] = substrate: CC(=O)Oc1ccc([N+](=O)[O-])cc1; test: UV/vis substrate-loss assay; assay type: biochemical, Drosophila melanogaster; details: Tris-HCl pH 8.0, 25 °C, 5% ethanol (Table S1), Fig. S1 without ethanol
[2] = substrate: CC(=O)Oc1ccc2ccccc2c1; test: UV/vis substrate-loss assay; assay type: biochemical, Drosophila melanogaster; details: Tris-HCl pH 8.0, 25 °C, 5% ethanol

B1: EST6 (wildtype EST6, EST6-WT) (Drosophila melanogaster) (protein)
chain: SDTDDPLLVQLPQGKLRGRDNGSYYSYESIPYAEPPTGDLRFEAPEPYKQKWSDIFDATKTPVACLQWDQFTPGANKLVGEEDCLTVSVYKPKNSKRNSFPVVAHIHGGAFMFGAAWQNGHENVMREGKFILVKISYRLGPLGFVSTGDRDLPGNYGLKDQRLALKWIKQNIASFGGEPQNVLLVGHSAGGASVHLQMLREDFGQLARAAFSFSGNALDPWVIQKGARGRAFELGRNVGCESAEDSTSLKKCLKSKPASELVTAVRKFLIFSYVPFAPFSPVLEPSDAPDAIITQDPRDVIKSGKFGQVPWAVSYVTEDGGYNAALLLKERKSGIVIDDLNERWLELAPYLLFYRDTKTKKDMDDYSRKIKQEYIGNQRFDIESYSELQRLFTDILFKNSTQESLDLHRKYGKSPAYAYVYDNPAEKGIAQVLANRTDYDFGTVHGDDYFLIFENFVRDVEMRPDEQIISRNFINMLADFASSDNGSLKYGECDFKDNVGSEKFQLLAIYIDGCQNRQHVEFP
notes: wildtype, baculovirus expressed, semi-purified; N-terminal signal peptide of 63 bp (21 residues) in the gene
In the case of B1, the Km [1] is reported as 269 ± 18 µM, the kcat [1] is reported as 105 ± 2 s-1 (head prints M.s-1) and the Km [2] is reported as 121 ± 6 µM. For the same protein, the kcat [2] was 135 ± 2 s-1 (head prints M.s-1).
